A protein production outcome set (Wang et al. 2014)

Assay: label from the status in PepcDB records

Row | Sequence | protein production
1 | MKKKQVLAVSSALMIGTTTALTGLPTPVMAQENTEVVQEAVVEENKTEQVPVEQKTENAEVQENITDKEQEETAENAETLKEESTKQETPATPEKEVVTEDKTVEASKNTEVKAGSIAIDETHFPDKVFREQIIAEFDKDGDSVLSVDEISKAQFLNLHGMKTISSLEGIQYLTNLQSLDVSTTSVSDLSPVKNSSLKRLDCRSSKVGSVDLTRYPNLEAFLCDNTSINSLDVSKNEKLNTLFADSTSISNLDVTNNPNLEQLSCSNTGLMELDVTHNPQLVTLDIGDTKVKTLDISKNPNLKQLSCYMTNIAELDVTKNTKLTRLFCHDTTIKKLDLSNNLELEMLRCGEIFEQGIRGLDISKNTKIKKLICDDLYWLNVGENKVLENNHAFVGNGYIDIKGNKIDLKKDVEQGIDISKVKVTANGTLDKDTGIITVDDVKKPVTYEYDCGTYKDGNVVLKVELSLNSQGEDNTAPTISANDVTLNVGDTFDPLANVTATDKEDGTITLTKDNIVANDVDTSKAGTYHVTYKVTDKNGASVKKTITVTVKQNTGDLNSAPIISANDVTLNVGDTFDPLANVTATDKEDGTIILTKDNIIANDVDTSKAGTYHVTFRVVDKNGAITEKTITVTVKEKATNKPVSPQQPQKPSKPTTPTKPSGQKNPVKTGDMTNVGLFTSMFAGSTGVLAVLFGKKRKRNKNN | failed
2 | MNNTPKLKLGIVAVSRDCFPMELSENRRKAVVDAYNGEIFECLTTVENEKDMRKALKEVKSAGVNALVVYLGNFGPETPETLIAKEFDGPVMFAAAAEERGDNLVNGRGDAYCGMLNASYNLALRNINAYIPEYPVGTASDVANMINEFVPVATALIGLKNLKIISFGPRPQDFLACNAPIKQLYNLGVEIEENSELDLFASFNEHENDSRIPDVVKDMEEELGEGNKMPGILPKLAQYELTLLDWAEEHKGSREYVVFANKCWPAFQTQFGCVPCYVNSRLTARGIPVSCEVDIYGALSEYIGTCVSQDVVTLLDINNTVPKDMYESEIKSKFNYTLKDTFMGFHCGNTAACKLTSGTMKNQMIMARALEPNQEPNITRGTLEGDIVPGEITFFRLQSNADSELTAYVAEGEVLPVKTRSFGSIGVFAIPQMGRFYRHVLIENRFPHHGAVAFGHFGKAIYNLFRYLGVKEVGFNRPKEMLYKTENPFELEHHHHHH | not failed
3 | MNIKLYYVHDPMCSWCWGYKPTIEKLKQQLPGVIQFEYVVGGLAPDTNLPMPPEMQQKLEGIWKQIETQLGTKFNYDFWKLCTPVRSTYQSCRAVIAAGFQDSYEQMLEAIQHAYYLRAMPPHEEATHLQLAKEIGLNVQQFKNDMDGTLLEGVFQDQLSLAKSLGVNSYPSLVLQINDAYFPIEVDYLSTEPTLKLIRERIIENMSA | not failed
4 | MKSRWIIGRSEYLDLAFHAWKQARQDETVIRIEVPQDSEHEFDLGVLDGLNPTDGAMFVAFDERFGNFKRVELMQAAMERGFKLESYIHSSAAIGTDVVIGLNTFVGAHAVVGHGCKIDYNTVIHAGAHLGTACRIKSSCWIENGVQIGAGVEIGGNSILRTGAIVRGGIKVGRSCELGWPRVYCEDVPAKTYFDARYHNPIHTFGT | failed
5 | MEDEHSRQAYVDQLGLLEEGADEVFEEILAAATSYFQTPIALISILDHQRQWFRASIGLDIRQTPRRDSFCAYAILGKGVFEVADATLDPRFRDNPYVQGEPRIRFYAGAPLATAEGLNLGSLCVIDREPRGPLAERDVAMLEHFARLVMARIHTLRSTNYIDEPTGLYNRLRLQEDVSLRLQRDGALTVIAADLLPLALLNTIIRTLGYPFSNDLMLEARDRIRAELPDFTLYKISPTRFGLLLPRQQQEETESVCLRLLRAFESPVVCRGIPIKANVGLGVLPLADDTLDGDQDWLRLVVSAADDARDRGVGWARYNPPLDQAQQRAFTLLTSLSQAIGTEEGFHLVYQPKIDLPTGRCTGVEALLRWRHPQLGFVSPAEFVPLAEKTALMRPLSDWVLRHAMAQLAQWNARNIPLRLAINVSASDMEDSSFLEEAVRLAKTYDIDLSALELEFTESVLIRDASAVGSVLLRARELGMGIAVDDFGTGYSNWTYLRDLPITAIKLDQSFTRDLAGSPKAQSVTQAVIGLASQLGYRVVAEGIETHDTFHLLQAWGCHEGQGYLIAQPMLPEQLEDWLRRLEHHHHHH | failed
6 | MLKTLLTSDVIQVVSQAKDWRDAIAISCQPLIDNGAVEARYVEAIYRSHEAIGPYYVVGPGIAMPHARPEDGVNRLSLALTVITEGVTFNAEGNDPVKLLIVLAATDSNSHIEAISQLAQLFDTASDVQALLNAKTPQDILSVIARY | not failed
7 | GKVIVLDAGHGGPDGGAVGGKDIVEKDITLEITKKVQDYLQEQGALVILTREGDYDLAQKDTKSYSRRKAEDLKKRVEIINKPDVDFFASIHLNALTSSGSKGAQTFYYRSSIENERAAKFIQAELRTSLENTNRSAKTISHVYLLKYAKTPGALIEAGFLSNVNERYMLNSEKYQQKVAAAVYRGILRYFTEKGNPPE | failed
8 | DHPEEGDTAPDFTRPLVNDEFWEDESLASVCADSDRVVLVFHAMDGAFPATYIWNEIRDRAWHEQATVVGISISTPYEHKQLLKEREIEGDYRLFSDPANGVAQQYSIDMALDGMAGIEEPRPSVFVLDSDRTIEYAWVAQEWPDFPDYDDVEAQL | failed
9 | MGFFDSGIGGMTVLYEAIKVLPYEDYIFYADTLNVPYGEKSKGKVKEYIFNAAEFLASQNIKALVIACNTATSIAIEDLRRNFDFPIIGIEPAVKPAINKCTEERKRVLVVATNLTLKEEKFHNLVKEIDHHDLVDCLALPGLVEFAENFDFSEDKIIKYLKNELSSFDLKQYGTIVLGCTHFPFFKNSFEKLFGIKVDMISGSVGTAKQLKKVLADRNQLGKGSGSITFFNSGHKIVDQEVISKYKRLFEILDETQRSHVGH | failed
10 | MFSILLPTWNNLALLKLCVQSIRAHSAHDHQIIVHVNDGSDGTLAWVREQGLDHTHSPGNVGICLAVNESAMLARHDYIVYLNDDMVCCPGWDTALLRRLDTLDTDLFMLSGTMIEPVDTGNPCVVVGNYGRDADTFDAARLLADVPRLARGDWLGATWPPTLVHRRWWFKLGGYSSELTPGMSSDNDFSMKLWHAGCRIFLGAGDSLVYHFQCKSTGKVKKNDGRRQFLNKWGLSQSTFDKYFLRRGTPAGADWRLPEPELTSALRWDLRRNDLTRRLRPGVPVLLEHHHHHH | not failed
11 | MEWFDKISEFMEGLPEWLQAHPRYGYLIVAGILLLWLVGIVCGWRWTYSRPGSWEGNFWLGTLGERSYRFWLGLIVAAATGCALLLFSVTG | failed
12 | MAINLTPLIGFLPEFIISAIISGFLFQAITNDKTFVRPIIGGKKPEQKSILKKVSSRRKPVDMKEYERMKNKTRYQALLFNSNMHIISSSALTVSAWILLIYAMIGIGKSSIFMPTFGFKINFIVYALLVIIFSVAMISSFSQVVRLREIYRIIASVFAVLSVVIFFEIPAMKWLFYIFPKVIVSYIFIYFAGLFILFLCYSLWWKLAPKITFYVSFYSSILTYFAIVSLMIYNSIPKL | failed
13 | MKKLLTVTFFTGMLTFFKMISGFIISKIVAIYTGPSGIVLFGQIQSIVSALNGVINSPVGPGIVRFTAENHRKGLEHCYKWWIAGLSWVCIISAIIIPLSITLSSHIAFWTLGSEKYSWVIILTACLLPLTAIGTFISSVINGFQNYKVYVLLGIISAFLSLIIMIALIVFGKINGALLAISVQNALIGGVMIIYASSQPWFNLRWLYGRVHKTYYKDIQRYIVMAITSAIVVPGSLIIVRNIIIHYVGWTEAGYWQAVWKISETYLAIITIALSTYYLPRLSSLSQKDDIIKEISSSLKIIIPLVMFFSMGIYLSRDFIISLLFTKEFLGARMLFQVQLIGDILKIASWLYAYVMISKGMTQLFVISEVLFSLLFISFSLVFIRCYGLIGVTYAYCLNYFIYLVFSVVVVKRAKYD | failed
14 | MKRLADVKISTLDLVPVRHDKGPAESLRNSLSLAQHVEKLGYNRFWVAEHHNMDGIASSATSVLLAYLAGGTSTIRVGAGGIMLPNHAPLVVAEQFGTLASLYPDRIDLGLGRAPGSDQMTARALRRERSGSAEDFPDDVTELMEYLGPRTPDQKVIAVPGSGTNVPIWLLGSSLFSAQLAGMRGLPYAFASHFAPRYMHEAIRVYRNHFQPSAVLDKPYVMLGVPLSAADTDEQAEYLATSVYQRILALMRGHSLMQRPPVDSMDGLWLPHEREAVASFLGLAMVGGPEKIRAKLDVLLEQTDADELIFTCDMYEHEDRLRSYEILAQ | failed
15 | MEVKGFIEIMRPHNCILAGIVGILGALVAYEGIPDIKTLTLIFWVVYFGCSGGNTANDYFDYEIDKINRPNRPLPRGAMSRRAALYYALLQYAIGSILAYFLNIRAFVFATIAYFLTFLYGWKLKPLPLVGNITVAALTAATPIYGAIGVGRIGLAGYLAICAFLVNVSREIMKDIEDIEGDKALGARTLPIIIGEKKAAIIAAIFGFLTVIASFLPVKVGIGLGYAPIIIVDIIIIKASIDVLRDPKAASKGQKLLKIATFVAVISFLAGALTKGV | failed
16 | MTASSKRTKKQAILETALQLFVSQGFHGTSTATIAREAGVATGTLFHHFPSKEQLLEQLFLGVKQEFADAIQASVSSRGDLKQDAEQLWFAALTWAMANPLKQAFFQLYSMSPTVEQSVRDQAMHGILGFIAELIRQGQASGELAEYPIELMQDNCHGQYLAATRYFVDHPERWQQAHERSASFALFWNAMAVR | not failed
17 | MFNAYREYWNNITTMNASATRAQYWWPQLINYLVLGIYSAITGVYRYIEVTPNDGTIIKEWNTVTIIFFLLTALIWLANFTVRARRLHDRDHSNWWILFYLLPFIGTLVIFITLILPSKSHTRWPVNQSEI | failed
18 | MTQVSIIVPVLNEESTIHSAVSRLCRDFPDCELIVVDGGSTDATAELAALHATVIGSERGRAKQMNEGARHASGGILWFIHADTAIEPEALGQIRSVLADPAVVAGGLTLRFDRRTPALNYLAWTSNARARRLHHIFGDQAMFIRRTAFDELGGFPDLAIMEDLEMSRRLHRRGPLRLLPATSTASSRRLTAHGTWRMIAFMQYLKLLYFAGADPEAIRARYTAGPRLFPKRNPATLEHHHHHH | failed
19 | MKEDIVSGTVKRVERHGIIVEVVAGKLDALIPRDQMIPRENFRSGDRIRALFLRVEEIGNTGRKQVILSRTSGDFLVKLYANEVPLEHHHHHH | failed
20 | MNQEKIADLKNWMHQEKIDFTYISDPGHIAYFSGYESEPHERVLALFIAADDQSFLFTPALEVEDAEKSSWTYPVYGYLDSENPWEKIAALLNKRTQGTPRFALEKQALSLARFDQLKTYFPASDFSHDVTPLIEKLQLIKTEPEIQRLLEAGSWADVAFEIGFKAIQAGVAEQEIVAEIEYQLKRQGIRSMSFDTLVLTGKNGASPHGVPGETKIEPHDLVLFDLGVVHNGYCSDATRTVSYLEPSDFQKEIYGIVLEAQLAATEAVKPGVTAGELDDIARGVITKAGYGEYFNHRLGHGIGTTVHEYPSLVHGNDLVIEEGMCFSIEPGIYIPGKVGVRIEDCLHVTKTGSEPFTKTTKELQIIQ | failed
21 | MSKDLLFWLTILLVLISGYLSYRKKRIESLTTAGLAGGFALSFMLYEKFPVLFSFLLGFIATFAFEWTRKR | failed
22 | MGIKHLNLTVADVVAAREFLEKYFGLTCSGTRGNAFAVMRDNDGFILTLMKGKEVQYPKTFHVGFPQESEEQVDKINQRLKEDGFLVEPPKHAHAYTFYVEAPGGFTIEVMC | not failed
